Measured values: the DeepSol protein solubility set

Assay: soluble on expression in E. coli; label from the status in PepcDB or PDB records

Sequence	soluble on expression in E. coli
KTTVRVGLVQWQMRPYKTLDDVFEQVEFFVDAVSDYKSDFVLFPEYFNAPLMAKFNHLGEAQSIRGLAQYTEEVRDRFINLAISYNINIITGSMPYVKEDGGLYNVGFLVRRDGSYEMYEKVHVTPDEIKSWGLSGGKMVQTFDTDCAKIGILICYDVEFPELSRIMADQGMQILFVPFLTDTQNGYSRVRVCAQARAIENECFVVIAGSVGNLPRVHNMDIQYAQSGVFTPCDFAFPTDGKRAEATPNTEMILVSDVDLNLLNELHTYGSVRNLRDRRHDLYELKIKK	not soluble
MGSDKIHHHHHHMSHSLTSVFQKIDSLKPQFFSRLTKAIQIPAVSSDESLRSKVFDKAKFISEQLSQSGFHDIKMVDLGIQPPPISTPNLSLPPVILSRFGSDPSKKTVLVYGHYDVQPAQLEDGWDTEPFKLVIDEAKGIMKGRGVTDDTGPLLSWINVVDAFKASGQEFPVNLVTCFEGMEESGSLKLDELIKKEANGYFKGVDAVCISDNYWLGTKKPVLTYGLRGCNYYQTIIEGPSADLHSGIFGGVVAEPMIDLMQVLGSLVDSKGKILIDGIDEMVAPLTEKEKALYKDIEFSVEELNAATGSKTSLYDKKEDILMHRWRYPSLSIHGVEGAFSAQGAKTVIPAKVFGKFSIRTVPDMDSEKLTSLVQKHCDAKFKSLNSPNKCRTELIHDGAYWVSDPFNAQFTAAKKATKLVYGVDPDFTREGGSIPITLTFQDALNTSVLLLPMGRGDDGAHSINEKLDISNFVGGMKTMAAYLQYYSESPEN	not soluble
MKMARMSKKKKLEMLDVARDEERNRIIRLLTEDDNFTPSLEPLIDNYLDAFIIYKTMFEEWKADGFAPTKTHKNKAGAVNEMKHPLAQQVETWNDKKNKMLEALGMTNKGKSVQKTPKNAENIQTDEPKDELAAHRNKWRKSK	not soluble
VDLPGNDFDSNDFDAVDLWGADGAEGWTADPIIGVGSAATPDTGPDLDNAHGQAETDTEQEIALFTVTNPPRTVSVSTLMDGRIDHVELSARVAWMSESQLASEILVIADLARQKAQSAQYAFILDRMSQQVDADEHRVALLRKTVGETWGLPSPEEAAAAEAEVFATRYSDDCPAPDDESDPW	soluble
MHHHHHHSSGVDLGTENLYFQSNAMKNIEKLEQSLTYEFKDKNLLIHALTHKSFKKSYNNERLEFLGDAVLDLVVGEYLFHKFAKDAEGDLSKLRAALVNEKSFAKIANSLNLGDFILMSVAEENNGGKEKPSILSDALEAIIGAIHLEAGFEFAKTIALRLIEKNFPQIDAKILIKDYKTKLQEITQGKIGQTPQYETVRAFGPDHLKQFEIALMLDGKELARAIAGSKKEAQQMAAKIALEKLGAL	soluble
MHLYNLTLQGQSAINQAIQGNFSGTPKAQEIVVGRGSALELLTLDTVTGKIKVMCHQDIFGIVRSLLAFRLTAGTRDFIAVGSDSGRIVILQYNAEKTCFERLHQETFGKTGCRRIVPGHFLVGDPRGRALMIGAVERQKLVYIMNRDSEAHLTISSPLEAHKHHTLCYAMVGIDVGFENPTFACLEFDYEDADNDPTGEAAKRTQQTLTFYELDLGLNHVVRKYAEPLNDPGNLLIAVPGGNDGPSGVIVCCENYLVYKNLGDQPDIRCPIPRRRNELDDADRTMLIIATATHKTKNMYFFLVQAENGDIFKVTLETDEDLVSEMKLKYFDTVPPANALCILKSGFLFVAAEFGNHELYQIASLGEGDDDEFSSAMGFGENDAAFFEPHELKSLIPIDSMDSLSPLTDAVIGDIAREDAAQIYSLVGRGARSSLKVLRNGLEISEMAVSDLPGNPNAVWTVKKNIEDQYDSYIVVSFVNATLALTIGDTVEEASDSGFLPTTPTIGCAMIGDDSLVQIYSEGIRHIRADKRINEWKAPPRRQIVKCAVNRRQVAVALTGGELVYFELDLNGTLNEFTERKLFNADIACMTFSEISEGELNSRFLALGTVDNAVRIISLDPNDMLMPLSTQSLPCPPESILLIDTPNEDGKGVAAVHLNIGLQNGCLFRNTVDNVTGAIMDTRTRYLGTRPVKLFKVQCQGRSAILCTSSRSWLLYHFQRRFHLTPLSYANLEYAASFCSNQCSEGIVAISASTLRIIAAEKLGVAFNVQSFEHKMTPRRVAVHPSMPCLIVIETDHASYTEVTKNIKRNQMAADVEAMASDETEAQLAQEIATNLRERRLDERVYGAPRAARGKWASAISLISATSGDKLSYFELPQDENAKCVALVQFSKHPNEAMVLVGCGVNEVLNVHDIDPNDTSIRPTRGCVYTFHLSANGDRFDFLHRTETPLPVGAIHDFRGMALVGFGRFLRMYDIGQKKLLAKCENKNFPVSIVNIQSTGQRIIVSDSQESVHFLRYRKGDNQLVVFADDTTPRYVTCVCVLDYHTVAVADKFGNLAVVRLPERVNEDVQDDPTVSKSVWDRGWLNGASQKVELVSNFFIGDTITSLQKTSLMPGANEALVYTTIGGAIGCLVSFMSKDEVDFFTNLEMHVRSEYPPLCGRDHLAYRSYYAPCKSVIDGDICEQFSLMDTQKQKDVAEELGKTVSEISKKLEDIRTRYAF	not soluble
MNKTNQIVDLLTNKQNNSIQRRDNLVFVKNEQEFKDILDSTISLSNVYDPLLGNGCEQEKIKELTILNNSVDISKIEEYTKTLESKVDDLYNNVSNQLIQDYQKNENTSANNIIMKNEELLNSHLKEVEKICEQLIDEWKIEILGEVNFKFQQQLIEIDQKQEHKLKVKSLINEDSFLTKRQVKNKNKILTEFEKHRSQITQNYLNKRSDILKKEYDELLKDDKLFELSSGDNWNNFKKITLFISNEIGIINDLEDLLNHQELIRTRNYTKRAILNQHHINGHFKDEKKYLKSLYDLRVKFMYGLGSEIVILKFLIEHYKKLNSLRLRLETLNHPLSNYAVYFDILNRIEKQTQLLAKIETLKYDNYDFNADVILDDLESNITKINEIKHNSNVLNKTKVIKTIIEPKYELELISKDDKVDGVKVYVNDQEILSKLEHHHHHH	not soluble
MAHHHHHHMVMYDPAAPNNYRDVKVMWWKRAREDERKNDISRSLAAAAEAGSSPFDMPDMMRMAPRDELAYDILGGSGDTMSLHLSAEELHQRRVRQSAALGITTAMNLEREELEAAHKARVAAGMDRRGRIGQKLGKLMSVAATRENATKTNTTSDHVGDGINTSAGEMTPATTMATSTTTSLPGITAPLVFQRSELAAGGYVVREDVGALEKRKTHYGKPSSTILIRFVRDGPPVEVFDDTSNKNVGSGTLRNAFLENIQDLCGQCGVVRSLRYMVLDDGKRAALRARLENEREEVSAASADVETRLAREMIRVLVRFDTVANAFKALEMLQQRHGSNWDVCFFSTQLFDVGALGPAEGESLCCA	not soluble
MNDNEKQLDLRIRRTHKLLWDSLFELMTQSKQKYSTITINQICDRAMVHRTTFYKHFEDKDALLTFGFKRYGKMIAEIPVSDRLSKPFQVMEQFLHHEEIGKILETQMSDEQFINRTQYLSHETRKQEIEALNQLHKNHTMPNDLIIEFYSGAITSLSAWWFKSERKVSAAEMDRYLHQLINRDIFQFEKE	not soluble
MPRSSLRLLAKPLLESRRGFCTSSDKIVASVLFERLRVVIPKPDPAVYAFQEFKFNWQQQFRRRYPDEFLDIAKNRAKGEYQMDYVPAPRITEADKNNDRKSLYRALDKKLYLLIFGKPFGATSDKPVWHFPEKVYDSEPTLRKCAESALKSVVGDLTHTYFVGNAPMAHMAIQPTEEMPDLPSYKRFFFKCSVVAASKYDISNCEDFVWVTKDELLEFFPEQAEFFNKMIIS	soluble
MFKLVGKEAFKVGDMKCIINVEALGTFAYEYSLDVNGKTFNKFKEEQNKRLHSWETTLSGHQWRVVLDKESMEIWANGNNIDTAGEFVDNGTVTHFELGKNPCKIIAQSSGKKKTGVTHTLYVNGEIVPSTVDKPNPSNQPGSS	not soluble
KVKELNLHELCAVCLEDFKPRDELGICPCKHAFHRKCLIKWLEVRKVCPLCNMPVLQLAQL	soluble
MFALVLAAGRSRRFDGDKRKALLPCGRTLLTACLETAGKVFTETGVVLREDDEVQTLGIPSKVTIIRCKHADLGMGHSLAAGIAAALNSSADAVAILLADMPWIEPQTLRDLARLADPQRIALPMHEGQRGHPVIIGRRFWPRLLALEGDQGAKALITNNPAFCDVMNCDDPGVLRDADTRSALAIACRQHLTAGRDLEHHHHHH	not soluble
